Data: publication PMC7961091, “Bacillus subtilis YngB contributes to wall teichoic acid glucosylation and glycolipid formation during anaerobic growth” (The Journal of Biological Chemistry, 2021)

B1: YngB (Bacillus subtilis subsp. subtilis str. 168) (protein)
chain: MRKKVRKAVIPAAGLGTRFLPATKAQPKEMLPIVDKPAIQYIVEEAAESGIEDILIITGRNKRSIEDHFDRSAELEFNLREKGKTETLKEMQQIADLANIHYIRQKEPLGLGHAVLCAEHFIGDEPFAVLLGDDIMVSETPALRQLMDVYDVYGTEVVGVQSVLPEDVSKYGIINTSGSQGHVYEVNDLVEKPSPEEAPSEIAVMGRYVLNSSIFSVLKTIGRGAGNEIQLTDALREVCRKEPIHARLLEGNRYDIGDKLGCFKASTEIGLMRPEMRSQLLAYLEDVIKRETKEMLR
notes: full-length, C-terminal His-tag kept (pET28b-yngB-cHis), E. coli BL21(DE3); native (Met) protein in kinetics; dimer in crystal
B2: GtaB (Bacillus subtilis subsp. subtilis str. 168) (protein)
chain: MKKVRKAIIPAAGLGTRFLPATKAMPKEMLPIVDKPTIQYIIEEAVEAGIEDIIIVTGKSKRAIEDHFDYSPELERNLEEKGKTELLEKVKKASNLADIHYIRQKEPKGLGHAVWCARNFIGDEPFAVLLGDDIVQAETPGLRQLMDEYEKTLSSIIGVQQVPEEETHRYGIIDPLTSEGRRYQVKNFVEKPPKGTAPSNLAILGRYVFTPEIFMYLEEQQVGAGGEIQLTDAIQKLNEIQRVFAYDFEGKRYDVGEKLGFITTTLEFAMQDKELRDQLVPFMEGLLNKEEI
notes: full-length, C-terminal His-tag cleaved off with thrombin (pET28b-gtaB-cHis), E. coli BL21(DE3)

What was measured:
[1] = substrate: O=c1ccn([C@@H]2O[C@H](COP(=O)(O)OP(=O)(O)OP(=O)(O)O)[C@@H](O)[C@H]2O)c(=O)[nH]1; assay: purified protein; format: biochemical, Bacillus subtilis; conditions: 200 μM Glc-1-P, MgCl2 10 mg/ml (so in the source), 50 mM Tris pH 7.5, 500 mM NaCl, 5% glycerol, RT
[2] = substrate: O=P(O)(O)O[C@H]1O[C@H](CO)[C@@H](O)[C@H](O)[C@H]1O; assay: purified protein; format: biochemical, Bacillus subtilis; conditions: 200 μM UTP, MgCl2 10 mg/ml (so in the source), 50 mM Tris pH 7.5, 500 mM NaCl, 5% glycerol, RT

Row | Protein | Km [1] [µM] | kcat [1] [s⁻¹] | Km [2] [µM] | kcat [2] [s⁻¹]
1 | B1 | 62.9 ± 13.8 | 0.293 | 42.1 ± 20.2 | 0.264
2 | B2 | 49.5 ± 10.2 | 1.04 | 45.6 ± 3.24 | 1.06
